Source: the supplement of paper PMC12042874
± gives the uncertainty stated by the source.

Assay: amyloid nucleation score (Sup35N fusion, yeast selection) (log enrichment); library NNK1; higher = more nucleation; inactive = no reads after selection
Method in brief: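 For the nucleation score, DiMSum gave the log enrichment of output over input reads, centred on the mode score of non-aggregating sequences. Psi-negative yeast expressing Sup35N fused to peptides of 20 random codons were induced with 100 μM copper sulfate for 24 hours and grown 7 days at 30°C on medium lacking adenine and uracil. Input and output plasmid inserts were Illumina-sequenced, and sequences with under 100 input reads were excluded.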

Substance | amyloid nucleation score
EHKWAANLDDMVHLDRHNMQ | 0.435 ± 0.72
EILIYNNYETFLVSFFEYGG | 4.21 ± 0.083
EIVSIS | -0.42 ± 1.2
EKLTKTYGTRFNKVKLFL | 0.294 ± 0.41
EKQCVVDFL | -1.26 ± 1.7
EKRFFVSLVNVYLDL | 4.57 ± 0.071
EKWKKAAIWFFLSYWLAVWR | -0.301 ± 1.2
ELFSAIPATIHCI | -0.057 ± 1.1
ELGGVWN | 0.701 ± 0.58
ELLQD | 0.038 ± 0.59
ELSNRVRTEFVCIRTLVEDN | inactive
ELTLGLCSYSVRRSCGEGSW | 6.62 ± 0.082
ELTYFGNI | 1.5 ± 0.24
EMALKVVMWC | inactive
EMIMVGSMYSRGNSTCFPRA | 0.777 ± 0.17
EMRLCRPCREYLLKSPT | 0.31 ± 0.37
EMTPLLCATVRKPWKRVMIN | -0.311 ± 0.73
ENHSECNWRKCQQTLISHEC | 0.487 ± 0.71
ENLVFTY | 0.01 ± 0.28
ENNTGSVETLYRCSEKLVLE | 0.228 ± 0.27
ENTVDPLRLDWCSGTSVWYK | 0.54 ± 0.88
ENVAITMVLPSAKMGSYMDG | 0.453 ± 1.2

Substance | amyloid nucleation score
ENVYGWVG | 1.09 ± 0.15
EPIVLTVCCFSPKDVSQDLN | 0.749 ± 0.56
EPVYISDWWTACEVADHVSL | inactive
EQFNT | 0.323 ± 0.56
EQVSKMGNTCMSVDRVRWQN | -0.411 ± 0.87
ERKRTFY | 0.536 ± 0.41
ERRQSEKPGLLPSWS | 0.46 ± 1.2
ERVGAGVGSNERRD | 0.646 ± 0.89
ERYRFRGIKLHRGDSWRDIC | 1.14 ± 0.71
ESCVRYRSACSMFV | 0.902 ± 0.47
ESFLASMLRIGMCLPKQVMW | -0.096 ± 0.66
ESHMRNHR | 0.312 ± 0.37
ESHRRR | 0.569 ± 0.62
ESMDGFARR | 0.654 ± 0.67
ESRKYWVNMVIGQDDRLVHP | inactive
ESSGTFFP | -0.186 ± 0.9
ESSNSLL | -0.244 ± 0.4
ETFNWLSCIVRRSQKYAEET | -0.242 ± 1.2
ETFPYMRMYARALSRT | 0.369 ± 0.39
ETRANGVESFSTDLYMHFLD | 1.16 ± 0.36
EVATGSGERIQLCQVQSVNT | 1.6 ± 0.55
EVENRFVCGNSDLSGNDANK | -0.489 ± 0.75

Substance | amyloid nucleation score
EVPMVFRGNEGVSRDCSLVG | -0.469 ± 0.42
EVVFNYTKHQVTIAV | inactive
EYLSDDGI | 0.131 ± 0.28
EYNQG | -0.76 ± 1.2
FACSFQSNLLDKKYTSLVNL | 0.051 ± 0.55
FAEFKDICMRE | 0.978 ± 0.74
FAGSSGRCTPGSGFQGSIVT | -0.167 ± 0.33
FAKVESLLWAGICTGRDEVM | -0.318 ± 0.46
FAMTNFRYDLPQTHPLPRAV | -0.679 ± 0.54
FASLFYKLQASLFTLDNIMH | -0.006 ± 0.88
FCDILQVLVCYGLLKRVLKV | -0.296 ± 0.3
FCKCNQVFISCLCGSTKHTG | 3.59 ± 0.1
FCLFKFDCSLSWPQVYRYRL | 1.09 ± 0.36
FCLSMVVDWVGR | -0.342 ± 0.31
FCMVDYWVLVPCDEIGTDVV | 0.116 ± 0.46
FCMWKGAFDRDYVGNGVAGS | inactive
FCNTLCAFW | 1.91 ± 0.22
FCNVQIFFAVITHPFYSTLL | 1.48 ± 0.24
FCSLGKFGSRKCF | 1.07 ± 0.61
FCSYLFMLATTLHQAWFHF | 1.1 ± 0.72
FCVSTRRWGRAEYKRMDLLW | 0.077 ± 1
FCVWIGKEGD | 0.442 ± 0.51

Substance | amyloid nucleation score
FCYIDMEFSFCLLSAEFISV | 0.03 ± 0.53
FDCVMLISHHCVILCCFSDM | 0.205 ± 1.1
FDECGAGLLPTG | -0.198 ± 0.41
FDGKLW | -0.53 ± 0.61
FDIDDIICIM | -1.89 ± 1.4
FDIMNDIK | 0.658 ± 0.52
FDKGVSIRPSAWRDPRVWPS | 0.417 ± 0.47
FDRHPGTYCDVKLLCREHSA | inactive
FDSRRGEGALMSNDSSCERG | -0.185 ± 0.69
FDVMKFYIYLGYSVVPVM | -1.09 ± 0.43
FDYLCSGGMSTILSCITFPL | -0.37 ± 0.9
FEAFFNGHSSREYLVISVRL | 0.153 ± 1.2
FEFIVMEIAC | -0.189 ± 0.35
FEIMQPNAHISCHYCYLVNM | 5.01 ± 0.059
FEQCPIFRRGRLLRSNAVCA | -0.145 ± 0.33
FEYNRYRLLYTTYLGPVGGI | -1.56 ± 0.64
FEYVIPRVTKIVRSTDRRGS | -0.548 ± 1.7
FFCEIVMYGWSIM | 2.97 ± 0.14
FFHNTSHASYIK | 1.09 ± 0.13
FFIETVYATKNYKHW | 2.76 ± 0.11
FFIGFIL | 1.59 ± 0.21
FFLILRVRLYCTSICQAYAN | 0.451 ± 0.48

Substance | amyloid nucleation score
FFNCFLLDNNYVSLYLWSKD | 6.832 ± 0.068
FFWEY | -0.312 ± 1.5
FGAVVADGMKLFSVSFS | -0.711 ± 0.52
FGFFWV | 0.099 ± 0.7
FGFMKKRRDLSY | 2.96 ± 0.091
FGFSKWSSMLIRHQPYDLFI | -1.1 ± 1
FGHKKPVGLTGLNGFSGTGV | 1.91 ± 0.63
FGINVVRGKCRVRSLKDIDS | -0.086 ± 0.48
FGLADITWKLPPQGSTWRLT | -0.108 ± 0.95
FGLIATTETRAVSKMNVFDN | 1.56 ± 0.49
FGLIGTPCERMVSGLEV | -0.806 ± 0.88
FGLIVQTIMFRWHQKGSNFE | -1.05 ± 2.7
FGLQWSSKAACVLTCKQSLR | inactive
FGLVAGRR | -0.188 ± 1.2
FGLYFRKISGLSPN | -0.211 ± 0.67
FGPCMRFDCCNRGST | 4.72 ± 0.082
FGYSAGHERMVHCVGLRSSG | 1.37 ± 0.69
FGYYFVNGIFLYSSVRYDNM | 3.63 ± 0.076
FHASATRTFIVFCIC | 0.556 ± 0.38
FHFKFSSLLIVSFVLGFCLV | 0.027 ± 1.7
FHHCFIQTSSDAVSSGLDFE | 0.644 ± 0.78
FHHTKSGS | 1.67 ± 0.57

Substance | amyloid nucleation score
FHIRWE | inactive
FHVSDV | -0.125 ± 0.98
FIFSAVGRNN | -0.411 ± 0.57
FIHAMAMCILGEHSI | 0.686 ± 0.47
FIHSRE | 0.366 ± 0.31
FIHVVAFWRLSRDSY | 0.467 ± 0.55
FIIITYFGLGKTVYARRKCC | -1.92 ± 2.7
FILSEFSNRF | 0.104 ± 0.34
FINVAFGCVYVRTNCLRMEG | 7.116 ± 0.059
FIQNGV | 0.659 ± 0.79
FIQNKVLVFQSNSTNDLLFP | 6.071 ± 0.058
FIVHANWQSFYFLLRLMVF | -0.109 ± 1
FIVLAYCLSFWVAIYPEVHM | 0.581 ± 0.73
FIYLENAS | 0.532 ± 0.38
FKIFD | 1.15 ± 0.81
FKKNKQSSVKFGSNKSLQIG | 0.027 ± 0.51
FKMSWSTPARYNNGLTRLIF | -0.379 ± 0.63
FKRLNRFYRSLAIMTSTSHL | -0.149 ± 0.69
FKSYPVGIRRHCHGTSMLMG | 0.059 ± 0.31
FKTRSRNRLVCCYEESRTDL | 0.536 ± 0.34
FKVTFNRDVPNESSTALCSV | -1.01 ± 1.7
